Conditions: Homo sapiens; pH 2.7; Thermal; DSC; glycine 0.05 M; reversible: yes; whole UniProt chain shown

B1: Lysozyme C wild type, P61626 (protein)
chain: MKALIVLGLVLLSVTVQGKVFERCELARTLKRLGMDGYRGISLANWMCLAKWESGYNTRATNYNAGDRSTDYGIFQINSRYWCNDGKTPGAVNACHLSCSALLQDNIADAVACAKRVVRDPQGIRAWVAWRNRCQNRDVRQYVQGCGV
In the case of B1, the Tm is reported as 64.9 °C, the “heat capacity change of unfolding” value is reported as 1.58 kcal/mol/K and the “unfolding enthalpy (calorimetric)” value is reported as 114 kcal/mol.
